From patent publication US12460006B2, “Antibodies against integrin alpha 11 beta 1” (Momenta Pharmaceuticals, Inc., priority 2019, dated 2025)
Entries after “also recorded” stand apart in the source; their conditions may differ.

T1: I domain of α11β1 (Homo sapiens, UniProt Q9UKX5)
T1 construct: An in-house generated I domain of α11β1 was used; made in house
T1 sequence (Q9UKX5 164-345 limits assumed): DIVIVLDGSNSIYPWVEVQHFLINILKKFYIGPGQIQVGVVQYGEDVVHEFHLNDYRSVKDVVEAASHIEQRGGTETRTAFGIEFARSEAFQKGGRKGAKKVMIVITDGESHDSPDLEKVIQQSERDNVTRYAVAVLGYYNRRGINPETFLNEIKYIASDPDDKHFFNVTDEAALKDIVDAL

B1: 6-B21: mouse anti-α11β1 mAb; VH SEQ ID NO: 123, VL SEQ ID NO: 124 (antibody, V domains shown)
VH: EVQLQQSGPELVKPGASVKISCKASGYTFTDYYMNWVKQSHGKSLEWIGDINPHNGGTSFIQKFKGKATLTVDKSSSTAYMELRSLTSEDSAVYYCAPLGRKEGFAYWGQGTLVTVSA
VL: DTVLTQSPASLVVSLGQRATISCRASKSVSTSGYSYMHWYQQKPGQPPKLLIYLASNLESGVPARFSGSGSGTAFTLNIHPVEEEDAATYYCQHSRELPYTFGGGTKLEIK
B2: 3-G5: mouse anti-α11β1 mAb; VH SEQ ID NO: 135, VL SEQ ID NO: 136 (antibody, V domains shown)
VH: QVQLQQSGAELARPGASVKLSCKASGYTFTSYGISWVKQRTGQGLEWIGEIFPRSSNTYYNEKFKGKATLTADKSSSTVYMEFRSLTSEDSAVYFCAREGGLAWFAYWGQGTLVTVSA
VL: DVVMTQTPLTLSVTIGQPASISCKSSQSLLYTNGNTYLNWLLQRPGQSPKRLIYLVSKLDSGIPDRFSGSGSGTDFTLRISRVEAEDLGVYYCLQSTHFPFTFGSGTKLEIK
B3: 16E10: rabbit anti-α11β1 mAb; heavy chain SEQ ID NO: 161, light chain SEQ ID NO: 162 (antibody)
heavy: METGLRWLLLVAVLKGVQCQSLEESGGDLVKPGASLTLTCRVSGFSFSSSYYMCWVRQAPGKGLEWIACIGTTRGSTYYATWAKGRFTISKISSTTVTLQMTSLTDADTATYFCARDATGYRINTIGLYFNLWGPGTLVTVSSGQPKAPSVFPLAPCCGDTPSSTVTLGCLVKGYLPEPVTVTWNSGTLTNGVRTFPSVRQSSGLYSLSSVVSVTSSSQPVTCNVAHPATNTKVDKTVAPSTCSKPMCPPPELPGGPSVFIFPPKPKDTLMISRTPEVTCVVVDVSQDDPEVQFTWYINNEQVRTARPPLREQQFNSTIRVVSTLPIAHQDWLRGKEFKCKVHNKALPAPIEKTISKARGQPLEPKVYTMGPPREELSSRSVSLTCMINGFYPSDISVEWEKNGKAEDNYKTTPTVLDSDGSYFLYSKLSVPTSEWQRGDVFTCSVMHEALHNHYTQKSISRSPGK
light: MDTRAPTQLLGLLLLWLPGARCAFELTQTPSSVEAAVGGTPTIKCQASQTIYSYLSWYQQKPGQPPKLLIYEASKLASGVPSRFSGSGSGTDYTLTISDLECADAATYYCQSYHGTASTEYNTFGGGTEVVVRGDPVAPTVLIFPPAADQVATGTVTIVCVANKYFPDVTVTWEVDGTTQTTGIENSKTPQNSADCTYNLSSTLTLTSTQYNSHKEYTCKVTQGTTSVVQSFNRGDC
B4: 9-E16: mouse anti-α11β1 mAb; VH SEQ ID NO: 111, VL SEQ ID NO: 112 (antibody, V domains shown)
VH: EVQLQQSGPELVKPGASVKISCKASGYTFTDYYMHWVKQKPGQGLEWIGEIYPGSGNPYYNEKFKGKATLTADKSSSSAYMQLSSLTSEDSAVYFCARTSYGRVGTGFAYWGQGTLVTVSA
VL: NFVMTQTPLSLPVSLGDQASISCRSSQSLLHSNGNTYLHWYLQKPGQSPKLLIYKVSNRFSGVPDRFSGSGSGTDFTLKINRVETEDLGIYFCSQSSHVPTFGAGTKLELK
B5: 16G7: rabbit anti-α11β1 mAb; heavy chain SEQ ID NO: 159, light chain SEQ ID NO: 160 (antibody)
heavy: METGLRWLLLVAVFKGVQCQEQLVESGGDLVKPGASLTLTCTASGFSFNKNYWMCWVRQAPGKGLEWIGCIYNGDGNTYYASWVNGRFTISKTSSTTVTLQMTSLTVADTAIYFCARLLNMWGPGTLVTVSSGQPKAPSVFPLAPCCGDTPSSTVTLGCLVKGYLPEPVTVTWNSGTLTNGVRTFPSVRQSSGLYSLSSVVSVTSSSQPVTCNVAHPATNTKVDKTVAPSTCSKPMCPPPELPGGPSVFIFPPKPKDTLMISRTPEVTCVVVDVSQDDPEVQFTWYINNEQVRTARPPLREQQFNSTIRVVSTLPIAHQDWLRGKEFKCKVHNKALPAPIEKTISKARGQPLEPKVYTMGPPREELSSRSVSLTCMINGFYPSDISVEWEKNGKAEDNYKTTPTVLDSDGSYFLYSKLSVPTSEWQRGDVFTCSVMHEALHNHYTQKSISRSPGK
light: MDTRAPTQLLGLLLLWLPGARCADIVMTQTPASVEAAVGGTVTIKCQASESIGNALAWYQQKPGQPPKLLIYTAATLASGVPSRFSGSGSGTEFTLTISGVQCDDAATYYCQSYYFTSVSSYGNAFGGGTEVVVKGDPVAPTVLIFPPAADQVATGTVTIVCVANKYFPDVTVTWEVDGTTQTTGIENSKTPQNSADCTYNLSSTLTLTSTQYNSHKEYTCKVTQGTTSVVQSFNRGDC
B6: 24E4G6: rat anti-α11β1 mAb; VH SEQ ID NO: 147, VL SEQ ID NO: 148 (antibody, V domains shown)
VH: MELELSLIFIFSLLKDVQCEVQLVESGGSLVQPGGSLKLSCVASGYTFSNYWMDWVRQSPGKSLEWIGEINTDGRRTNYAPSIKDRFTISRDNAKSTLYLQMSNVKSDDTAIYYCTILRVYPHYFDYWGQGVMVTVSS
VL: MMSPAQFLFLLMLWIQEARGDVVMTQTPPSLSVAIGQSVSISCKSSQSLVYSDGETYLHWFLQSPGRSPKRLIYHVSNLGSGVPDRFSGTGSLTDFTLRISRVEAEDLGVYYCAQTTHFPPTFGAGTKLELK
B7: 6-O12: mouse anti-α11β1 mAb; VH SEQ ID NO: 117, VL SEQ ID NO: 118 (antibody, V domains shown)
VH: EVKLEESGGGLVQPGGSMKLSCAASGFTFSDAWMDWVRQSPEAGLEWVAEIRNKAHNPATYYAESVKGRFTISRDDSKSSVYLQMNSLRAEDTGIYYCTLVAPDAMDYWGQGTSVTVSS
VL: DIVMSLSPSSLAVSVGEKVTMSCKSSQSLLYSRNQKNYLAWYQQKPGQSPKLLIYWASTRASGVPDRFTGSGSGTDFTLTISSVKAEDLAVYYCQQYYSYPYTFGGGTKLEIK
B8: 10-F23: mouse anti-α11β1 mAb; VH SEQ ID NO: 125, VL SEQ ID NO: 126 (antibody, V domains shown)
VH: QVTLKESGPGILQPSQTLSLTCSFSGFSLSTFAMGVGWIRQPSGKGLEWLAHIWWDDDKYYNPALKSRLTISKDTSKNHVFLKIANVDTADTATYYCARMPLTFYFDYWGQGTTLTVSS
VL: DVLLTQTPLSLPVSLGDQASISCRSSQSIVHSNGHTYLEWYLQKPGQSPKLLIYKVSNRFSGVPDRFSGSGSGTDFTLKISRVEAEDLGVYYCFQGSHVPFTFGGGTKLEIK

The molecules below were run on α1β1, α2β1 and/or α10β1 (assay: Counter-screen for cross-reactivity to other collagen receptors). Conditions: cross-reactivity to α1β1, α2β1, α10β1.
Assay type: binding, human
Description: Wistar rats were immunized with recombinant human α11β1 protein. An enzyme-linked immunosorbent assay (ELISA) was used to test an immune response against target human and mouse proteins. Subsequently, cell fusion (by electro fusion) was performed with animals that produced a good immune response. All fused cells were plated in a 96-well plate and supernatants were screened by ELISA against soluble human and mouse α11β1. Positive clones were counter-screened against human α1β1, α2β1 and α10β1. […] Purified antibodies were then generated from the selected clones and heavy chain and light chain variable domain sequences were obtained from each purified antibody.
10 mice from 5 different strains were immunized with an appropriate mixture of human α11β1, mouse α11β1 and tolerance breaking protein. Plasma titers were evaluated by ELISA against a mixture of human and mouse α11β1. Popliteal, inguinal, and iliac lymph nodes were collected. ELISA-positive anti-human/mouse α11β1 hybridomas were expanded and subjected to a secondary screen against human and mouse α11β1, control HIS protein, and a counter-screen was performed against human […], α2β1 and α10β1. Supernatant IgG concentration was sufficient for functional screening. Selected hybridomas satisfying all the criteria were cloned and clonal hybridomas were confirmed by ELISA against human and mouse α11β1 and subsequently scaled-up and IgGs were purified. Heavy and light chain variable regions of selected hybridomas were then sequenced.
α11β1 belongs to a family of collagen receptors and has a relatively high homology to them. Therefore, the novel antibodies of this invention were counter-screened against α1β1, α2β1 and/or α10β1. Table 2 includes results of cross-reactivity to the other receptors.

| Molecule | Off Target |
| --- | --- |
| B1 | No |
| B2 | No |
| B3 | No |
| B4 | No |
| B5 | No |
| B6 | No |
| B7 | No |
| B8 | No |

Each molecule was assayed against T1, I domain of α11β1 (assay: ELISA binding to in-house generated I domain of α11β1). Conditions: not given.
Description: 0.25 μg/mL of target antigen (recombinant human or mouse α11β1) was plated in a 96-well plate over night at 4° C. Plates were washed (PBS with 0.1% Tween-20), blocked (PBS with 2% BSA and 0.05% Tween-20) for 1 hour at room temperature and incubated with a range of antibody concentrations for 1 hour at room temperature. Subsequently, plates were washed and incubated with biotinylated anti-rabbit/mouse/human IgG in a 1:1000 dilution buffer and incubated for 1 hour at room temperature. After washing the plates, Streptavidin HRP was added at 1:200 in dilution buffer and incubated for 1 hour at room temperature. Ultra TMB ELISA substrate solution was added and the plates incubated for 5 minutes on a plate shaker. The reaction was stopped by adding stop solution to each well and plates were read at 450 nm.
22 Data was also collected to determine whether antibodies of interest bind to the I domain of α11β1. An in-house generated I domain of α11β1 was used. […] Mouse antibodies 10-F23, 10-L15, 7-O8, 6-A12, 9-G05 and 9-E16 and rabbit antibodies 7-H12 and 2-D3 were also tested for binding against the in-house generated α11031 domain. FIGS. 3A and 3B show graphs illustrating binding data from exemplary mAbs.

| Molecule | I-domain binder |
| --- | --- |
| B4 | I domain binders; also recorded: I-domain binders; also recorded: bound the I domain |
| B6 | did not bind to the I-domain; also recorded: neither of the antibodies was found to be an I-domain binder |

Same assay, conditions: Yes/No

| Molecule | I Domain binding |
| --- | --- |
| B1 | No |
| B2 | No |
| B3 | No |
| B4 | Yes |
| B5 | No |
| B6 | No |
| B7 | No |
| B8 | Yes |

What follows are molecules tested on human pulmonary fibroblasts (HPFs) (assay: FACS antibody binding to human pulmonary fibroblasts). Conditions: FACS.
Description: Human Pulmonary Fibroblasts (ScienCell) were cultured in complete Fibroblast Growth Medium (ScienCell) until 80% confluent in T-150 flasks. Cells were washed and harvested using Accutase. Cells were seeded into T-150 flasks at 7,500 cells/cm^2 in complete FGF and cultured for 72 hours. Cells were then washed and starved in serum reduced medium for 24 hours. After starvation, cells were treated with TGFβ-1 (R&D Systems) for 72 hours. Cells were harvested using Accutase and seeded in 96-well conical bottom plates. Cells were blocked with Heat Inactived Fetal Bovine Serum (Gibco) for 30 minutes at 4° C. Cells were then incubated with anti-α11 antibodies at the doses described in each figure for 30 minutes at 4° C. A human anti-α11 antibody (Creative BioLabs) was included as a positive control as well as the appropriate IgG isotype negative controls. Cells were washed twice and incubated with PE conjugated secondary antibodies specific to the IgG class of the anti-α11 antibodies being tested for 30 minutes at 4° C. Cells were washed twice and fixed in 1% PFA for 30 minutes. Cells were acquired on a FACS Verse […]. Data were analyzed by gating on single cells and determining the geometric Mean Fluorescence Intensity (gMFI) in the PE channel for each sample.
Binding to a physiologically relevant primary human cell type was also tested. Human pulmonary fibroblasts (HPF) and TGFβ treatment were used to induce a fibroblast-to-myofibroblast transition (FMT), giving rise to myofibroblasts (MF). […] Additionally, HPFs express α11 and α2β1, other collagen binding receptors, which means that HPFs can be to test cross-reactivity of antibodies of interest.

| Molecule | binding to HPFs |
| --- | --- |
| B4 | some HPF binding |

Same assay, conditions: binding Yes/No

| Molecule | HPF FACS |
| --- | --- |
| B1 | No |
| B2 | No |
| B3 | No |
| B4 | Low |
| B5 | No |
| B6 | No |
| B7 | No |
| B8 | No |
